# Data from PMC11001860, “The assembly platform FimD is required to obtain the most stable quaternary structure of type 1 pili” (Nature Communications, 2024).
# T1: FimC, periplasmic chaperone of type 1 pili (Escherichia coli, UniProt P31697 37-241)
# T1 construct: FimC, periplasmic chaperone of type 1 pili, Escherichia coli; source: E. coli BL21(DE3) with pFimC-cyt, purified (SP-Sepharose, Superdex 75 SEC)
# T1 sequence: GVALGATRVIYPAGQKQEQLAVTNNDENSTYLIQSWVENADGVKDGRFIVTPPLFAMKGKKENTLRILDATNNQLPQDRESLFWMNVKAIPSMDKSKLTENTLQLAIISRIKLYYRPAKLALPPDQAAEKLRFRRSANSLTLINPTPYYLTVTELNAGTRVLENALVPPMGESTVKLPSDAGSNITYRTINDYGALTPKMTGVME
# T2: FimChis (Escherichia coli, UniProt P31697 37-241)
# T2 construct: FimC, periplasmic chaperone of type 1 pili, Escherichia coli; source: E. coli BL21(DE3) with pFimChis-cyt, purified (SP-Sepharose, Superdex 75 SEC)
# T2 sequence (looked up): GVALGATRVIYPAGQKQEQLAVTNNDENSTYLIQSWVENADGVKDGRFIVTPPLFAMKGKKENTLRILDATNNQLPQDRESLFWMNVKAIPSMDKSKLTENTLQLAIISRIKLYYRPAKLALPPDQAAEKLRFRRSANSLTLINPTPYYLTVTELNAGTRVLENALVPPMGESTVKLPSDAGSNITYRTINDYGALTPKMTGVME
# B1: FimA, main structural subunit of the type 1 pilus rod (recombinant, assembled in vitro) (natural protein)
# chain: AATTVNGGTVHFKGEVVNAACAVDAGSVDQTVQLGQVRTASLAQEGATSSAVGFNIQLNDCDTNVASKAAVAFLGTAIDAGHTNVLALQSSAAGSATNVGVQILDRTGAALTLDGATFSSETTLNNGTNTIPFQARYFATGAATPGAANADATFKVQYQ
# notes: FimA, main structural subunit of the type 1 pilus rod of Escherichia coli; printed residue numbers run to Q159; The same FimA was used for rods assembled from FimA monomers, from FimA-FimC complexes and with FimD (FimD-cat); also called FimA monomers; self-complemented FimA
# B2: PapA, main structural subunit of the P pilus rod (co-expressed with PapDhis) (natural protein)
# chain: APTIPQGQGKVTFNGTVVDAPCSISQKSADQSIDFGQLSKSFLEAGGVSKPMDLDIELVNCDITAFKGGNGAKKGTVKLAFTGPIVNGHSDELDTNGGTGTAIVVQGAGKNVVFDGSEGDANTLKDGENVLHYTAVVKKSSAVGAAVTEGAFSAVANFNLTYQ
# notes: PapA, main structural subunit of the P pilus rod, Escherichia coli; also called in vitro-assembled P pili; source: E. coli HM125 with PapDA (pTRC99a), periplasmic extract; purified as a complex with PapDhis (HisTrap, Source 30S, SEC)
# Experiments:
# [1] = target: the molecule itself; assay: cryo-EM structure; in vitro-assembled type 1 pilus rods, helical reconstruction, 2.69 Å; sample diluted to 100 µM in ddH2O
# [2] = target: T1, FimC, periplasmic chaperone of type 1 …; assay: SEC; complex formed by rapid dilution of unfolded, disulfide-intact FimA into FimC (15 min, 23 °C), then Sephadex G25, Source 30S cation exchange and Superdex 75 in 20 mM Tris-HCl pH 8.0, 50 mM NaCl; settings: both partners purified
# FimChis = target: T2, FimChis; assay: as above; settings: both partners purified
# [3] = target: the molecule itself; assay: negative-stain EM; P pilus rods assembled in vitro from 50 µM PapA-PapDhis complex, 20 mM Tris-HCl pH 8.0, 50 mM NaCl, 37 °C, 7 days
Binder,binding result [1],binding result [2],binding result (FimChis),binding result [3]
B1,binds,binds,binds,–
B2,–,–,–,binds
